Assay results as given in the supplement of paper PMC7877785.
± gives the uncertainty stated by the source.

Assay: self-splicing fitness, log relative to wild type (ln ratio); higher = more splicing; Tetrahymena group I intron in knt gene, E. coli kanamycin selection, DiMSum; sequences stand for … in CUCUCU…GGAGGGAAAAGUUAUCAGGCAUGCACCUGGUAGCUAGUCUUUAAACCAAUAGAUUGCAUCGGUUUAAAAGGCAAGACCGUCAAAUUGCGGGAAAGGGGUCAACAGCCGUUCAGUACCAAGUCUCAGGGGAAACUUUGAGAUGGCCUUGCAAAGGGUAUGGUAAUAAGCUGACGGACAUGGUCCUAACCACGCAGCCAAGUCCUAAGUCAACAGAUCUUCUGUUGAUAUGGAUGCAGUUCACAGACUAAAUGUCGGUCGGGGAAGAUGUAUUCUUCUCAUAAGAUAUAGUCGGACCUCUCCUUAAUGGGAGCUAGCGGAUGAAGUGAUGCAACACUGGAGCCGCUGGGAACUAAUUUGUAUGCGAAAGUAUAUUGAUUAGUUUUGGAGUACUCGUGGUCG
Outline: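 Six replicate transformations of E. coli BL21(DE3) with a pET-22b(+) library were grown overnight at 37°C or 30°C. The library randomised all eight P1ex-region intron nucleotides, the intron lying in the knt kanamycin-resistance gene, and plates were LB agar with or without 25 μg/mL kanamycin plus 100 μg/mL carbenicillin, 50 μM IPTG and 0.2% rhamnose. Pooled colonies were amplicon-sequenced on an Illumina HiSeq 2500, and fitness is the DiMSum error-weighted combination of wild-type-normalised replicate fold changes, kanamycin versus none.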

Sequence | self-splicing fitness (ln) (30 °C) | self-splicing fitness (ln) (37 °C)
UCGCAGCAAUAUUACGGUCU | -3.22 ± 0.2 | -1.13 ± 0.12
GUGCAGCAAUAUUACGGAAC | -2.17 ± 0.23 | -1.12 ± 0.33
UGCAAGCAAUAUUACGAACA | -1.23 ± 0.094 | 0.193 ± 0.13
GUAGAGCAAUAUUACGUCGU | -0.814 ± 0.084 | -0.0553 ± 0.11
GAGAAGCAAUAUUACGAGUC | -2.11 ± 0.11 | -1.78 ± 0.2
GUCAAGCAAUAUUACGGUCC | -2.23 ± 0.27 | -1.09 ± 0.25
GUAAAGCAAUAUUACGACCG | -0.799 ± 0.43 | -0.23 ± 0.36
GGUUAGCAAUAUUACGACCA | -1.69 ± 0.32 | -0.631 ± 0.3
ACCAAGCAAUAUUACGCACG | -1.92 ± 0.1 | -0.625 ± 0.13
AGAUAGCAAUAUUACGAUUU | -0.348 ± 0.084 | 0.527 ± 0.11
UGUAAGCAAUAUUACGCAUU | -3.58 ± 0.28 | -2.08 ± 0.24
GUUUAGCAAUAUUACGUGCC | -2.91 ± 0.36 | –
UCUCAGCAAUAUUACGUGCA | -0.751 ± 0.065 | -0.0852 ± 0.071
CCUAAGCAAUAUUACGCGUC | -3.25 ± 0.16 | -1.95 ± 0.17
UAGCAGCAAUAUUACGUCAC | -4.49 ± 0.42 | -2.46 ± 0.33
AGCUAGCAAUAUUACGACGA | -1.17 ± 0.12 | -0.734 ± 0.14
UGUAAGCAAUAUUACGGCUG | 0.2 ± 0.1 | -0.152 ± 0.11
UUCUAGCAAUAUUACGUGAG | -0.386 ± 0.06 | -0.345 ± 0.11
AUGCAGCAAUAUUACGAGUU | -3.2 ± 0.11 | -1.39 ± 0.1
GUAGAGCAAUAUUACGAUAU | -0.731 ± 0.088 | 0.237 ± 0.12
AGACAGCAAUAUUACGGAUA | -2.97 ± 0.12 | -2.17 ± 0.13
UCCCAGCAAUAUUACGCGUA | -0.178 ± 0.066 | 0.0254 ± 0.079
ACUCAGCAAUAUUACGCCAG | -0.898 ± 0.087 | -1.27 ± 0.15
CAUAAGCAAUAUUACGCCUG | -2.54 ± 0.22 | -1.39 ± 0.17

Sequence | self-splicing fitness (ln) (30 °C) | self-splicing fitness (ln) (37 °C)
CAGGAGCAAUAUUACGGCAA | -4.26 ± 0.32 | -2.84 ± 0.33
AUAAAGCAAUAUUACGUCAU | -0.954 ± 0.056 | -0.228 ± 0.083
GAGGAGCAAUAUUACGGCUG | -1.48 ± 0.15 | -1.88 ± 0.31
CGAAAGCAAUAUUACGGAAG | -0.208 ± 0.097 | -0.546 ± 0.11
UUAGAGCAAUAUUACGUGUG | -1.27 ± 0.09 | -1.11 ± 0.14
AUUAAGCAAUAUUACGACAA | -0.618 ± 0.096 | -0.264 ± 0.11
GGAAAGCAAUAUUACGAGCG | -0.482 ± 0.12 | 0.397 ± 0.12
CAUCAGCAAUAUUACGGUUG | -2.29 ± 0.072 | -0.804 ± 0.079
ACACAGCAAUAUUACGUGUG | -3.55 ± 0.1 | -1.44 ± 0.065
CCGUAGCAAUAUUACGAGCA | – | -1.37 ± 0.33
ACGAAGCAAUAUUACGUCCG | -0.464 ± 0.097 | -0.122 ± 0.12
GCUCAGCAAUAUUACGAACC | -1.34 ± 0.22 | 0.355 ± 0.23
UGUCAGCAAUAUUACGUAAC | -2.38 ± 0.24 | 0.145 ± 0.26
AAUCAGCAAUAUUACGGGUG | -0.238 ± 0.044 | 0.275 ± 0.06
AUCCAGCAAUAUUACGCUUU | -0.879 ± 0.076 | -0.641 ± 0.086
CGCAAGCAAUAUUACGCCAG | -1.01 ± 0.094 | -0.582 ± 0.13
CCCUAGCAAUAUUACGGAGA | -4.85 ± 0.46 | -2.68 ± 0.2
GCAAAGCAAUAUUACGAAAA | -1.98 ± 0.2 | -1.84 ± 0.24
CGGUAGCAAUAUUACGGUCG | -2.62 ± 0.21 | -1.65 ± 0.25
UGACAGCAAUAUUACGGUAC | -4.6 ± 0.36 | -2.85 ± 0.38
AAUUAGCAAUAUUACGACAG | -1.72 ± 0.32 | -0.992 ± 0.25
GAGGAGCAAUAUUACGGAUA | -3.62 ± 0.28 | -2.33 ± 0.37
ACGGAGCAAUAUUACGCCCA | -2.81 ± 0.43 | -1.92 ± 0.37
CCGCAGCAAUAUUACGCACA | -2.51 ± 0.19 | -1.48 ± 0.17
